Results: PMC10502159 (2023)

Experiments:
RAGE 1-344 = RAGE 1-344 (Homo sapiens, UniProt Q15109); assay: SPR
TLR4 1-631 [1] = target: T1, TLR4 1-631 (Homo sapiens, UniProt O00206); assay: SPR
TLR4 1-631 [2] = target: T1, TLR4 1-631; assay: SPR (steady state)

T1 sequence (O00206 1-631): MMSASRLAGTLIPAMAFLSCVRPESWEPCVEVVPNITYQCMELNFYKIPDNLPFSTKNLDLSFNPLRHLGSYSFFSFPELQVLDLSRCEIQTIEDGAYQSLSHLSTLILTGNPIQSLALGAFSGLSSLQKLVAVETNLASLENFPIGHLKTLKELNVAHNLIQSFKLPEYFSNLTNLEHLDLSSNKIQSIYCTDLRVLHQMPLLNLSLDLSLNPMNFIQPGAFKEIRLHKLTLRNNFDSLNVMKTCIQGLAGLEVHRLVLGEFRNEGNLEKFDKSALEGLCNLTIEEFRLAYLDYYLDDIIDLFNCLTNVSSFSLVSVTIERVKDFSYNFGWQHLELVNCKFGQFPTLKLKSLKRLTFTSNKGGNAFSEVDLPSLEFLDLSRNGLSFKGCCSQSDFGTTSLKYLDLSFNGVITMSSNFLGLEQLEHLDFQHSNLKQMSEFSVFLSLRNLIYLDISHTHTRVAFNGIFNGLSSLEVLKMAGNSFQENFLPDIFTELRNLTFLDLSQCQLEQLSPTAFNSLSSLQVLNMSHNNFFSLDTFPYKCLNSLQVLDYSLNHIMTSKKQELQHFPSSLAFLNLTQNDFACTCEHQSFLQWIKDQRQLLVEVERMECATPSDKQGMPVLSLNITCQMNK
Sequence of RAGE 1-344 (Q15109 1-344): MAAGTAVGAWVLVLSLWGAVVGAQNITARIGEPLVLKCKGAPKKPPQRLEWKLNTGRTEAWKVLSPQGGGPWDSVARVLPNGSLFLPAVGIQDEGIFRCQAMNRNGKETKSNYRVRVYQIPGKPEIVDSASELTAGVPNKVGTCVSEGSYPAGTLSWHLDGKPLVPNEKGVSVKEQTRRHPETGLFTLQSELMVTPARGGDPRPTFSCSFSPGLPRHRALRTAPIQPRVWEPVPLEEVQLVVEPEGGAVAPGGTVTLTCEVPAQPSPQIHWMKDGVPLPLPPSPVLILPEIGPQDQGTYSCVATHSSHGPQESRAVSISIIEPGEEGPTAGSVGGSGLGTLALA

| Binder | Kd (RAGE 1-344) [nM] | Kd (TLR4 1-631 [1]) [nM] | Kd (TLR4 1-631 [2]) [nM] |
| --- | --- | --- | --- |
| procathepsin L (pCTS-L) 17-333 (protein, mAb20 pre-exposed) ATLTFDHSLEAQWTKWKAMHNRLYGMNEEGWRRAVWEKNMKMIELHNQEYREGKHSFTMAMNAFGDMTSEEFRQVMNGFQNRKPRKGKVFQEPLFYEAPRSVDWREKGYVTPVKNQGQCGSCWAFSATGALEGQMFRKTGRLISLSEQNLVDCSGPQGNEGCNGGLMDYAFQYVQDNGGLDSEESYPYEATEESCKYNPKYSVANDTGFVDIPKQEKALMKAVATVGPISVAIDAGHESFLFYKEGIYFEPDCSSEDMDHGVLVVGYGFESTESDNNKYWLVKNSWGEEWGMGGYVKMAKDRRNHCGIASAASYPTV | 30.4 | 1140 | – |
| procathepsin L (pCTS-L) 17-333 (protein, control c-mAb pre-exposed) ATLTFDHSLEAQWTKWKAMHNRLYGMNEEGWRRAVWEKNMKMIELHNQEYREGKHSFTMAMNAFGDMTSEEFRQVMNGFQNRKPRKGKVFQEPLFYEAPRSVDWREKGYVTPVKNQGQCGSCWAFSATGALEGQMFRKTGRLISLSEQNLVDCSGPQGNEGCNGGLMDYAFQYVQDNGGLDSEESYPYEATEESCKYNPKYSVANDTGFVDIPKQEKALMKAVATVGPISVAIDAGHESFLFYKEGIYFEPDCSSEDMDHGVLVVGYGFESTESDNNKYWLVKNSWGEEWGMGGYVKMAKDRRNHCGIASAASYPTV | 3.1 | 20.3 | – |
| procathepsin L (pCTS-L) 17-333 (protein) ATLTFDHSLEAQWTKWKAMHNRLYGMNEEGWRRAVWEKNMKMIELHNQEYREGKHSFTMAMNAFGDMTSEEFRQVMNGFQNRKPRKGKVFQEPLFYEAPRSVDWREKGYVTPVKNQGQCGSCWAFSATGALEGQMFRKTGRLISLSEQNLVDCSGPQGNEGCNGGLMDYAFQYVQDNGGLDSEESYPYEATEESCKYNPKYSVANDTGFVDIPKQEKALMKAVATVGPISVAIDAGHESFLFYKEGIYFEPDCSSEDMDHGVLVVGYGFESTESDNNKYWLVKNSWGEEWGMGGYVKMAKDRRNHCGIASAASYPTV | – | – | < 28.3 |
